Measured values reported in PMC8849478, “Scalable manufacturing platform for the production of methemoglobin as a non-oxygen carrying control material in studies of cell-free hemoglobin solutions” (PLoS ONE, 2022).

B1: bovine hemoglobin (complex)
chain 1: not shown
chain 2: not shown
notes: hemoglobin alpha chain, bovine, from whole bovine blood; hemoglobin beta chain, bovine, from whole bovine blood; alpha2beta2 tetramer with ferrous heme (HbFe2+); in equilibrium with alpha-beta dimers; also called bHb; unmodified bHb; source: purified from bovine red blood cells (lysis, tangential flow filtration); copies: 2 + 2
B2: bovine methemoglobin (complex)
chain 1: not shown
chain 2: not shown
notes: hemoglobin alpha chain, bovine, from whole bovine blood; hemoglobin beta chain, bovine, from whole bovine blood; same chains as m1; the heme iron is oxidised to the ferric state (HbFe3+); purity 99.7 ± 0.2%; also called metbHb; bovine metHb; copies: 2 + 2

Molecular target: the molecule itself
Experiment: SEC; tetramer to dimers; SEC-HPLC of samples at 1.25, 2.5, 5, 10 and 20 μM (heme basis) after incubation in 0.1 M PBS pH 7.4 at 4°C for one week; fraction of tetramers by deconvolution, Kd from the intercept of the linearised plot (Eq 3)

Row | Protein | Kd [nM]
1 | B1 | 500
2 | B2 | 550
